Patent US20250019450A1 (DIAGONAL THERAPEUTICS, published 2025)

B1: DGL482 (bispecific antibody, V domains shown)
V domain 1: QVQLVESGGGLVQAGGSLRLSCAASARIFNSYAVAWFRQTPGKEREFVASISWSGGSTNYADSVKGRFTISRDNAKNTVFLQMNSLKPADTAVYYCAADRNYYPSVLGKYTYWGQGTQVTVEP
V domain 2: QVQLVESGGGLVQPGGSLRLSCAASGFTFSSKAMHWFRQAPGKGLEWVSSINSGGAITYYKDSVKGRFTVSRDNAKNILYLEMNSLKPEDTALYYCATDTDGRTRGQGTQVTVEP
notes: 67B1 x 64B2
B2: DGL606 (bispecific antibody, V domains shown)
V domain 1: QLQLVESGGGLVQPGGSLRLSCAASGFTFSSYGMSWVRQAPGKGLEWVSYISAGGGTTTYVDFVKGRFTISRDNAKNMLYLQMNSLKPEDTAVYYCVHAADGSRGQGTQVTVEP
V domain 2: QVQLEESGGGLVQAGGSLRLSCAASGRTFSSYVVGWFRQAPGKEREFVGRISWSGARTYYADSVEGRFTISRDNAKNTVYLQMNSLKPEDTAVYYCAADLKWEVLLSEHYEYWGQGTQVTVEP
notes: 238B1 x 219B2
B3: DGL601 (bispecific antibody, human IgG1, lambda)
heavy 1: not shown
heavy 2: QVQLVESGGGLVQPGGSLRLSCAASGFTFSNYAMSWVRQAPGKGLEWVSAINSDGTSTSYADSVKGQFTISRDNAKNTLYLQMNSLKPEDTAVYYCTKWEGDTDSDYKFKDYWGQGTQVTVEPKSSDKTHTCPPCPAPEAAGAPSVFLFPPKPKDTLMISRTPEVTCVVVDVSHEDPEVKFNWYVDGVEVHNAKTKPREEQYNSTYRVVSVLTVLHQDWLNGKEYKCKVSNKALPAPIEKTISKAKGQPREPQVCTLPPSRDELTKNQVSLSCAVKGFYPSDIAVEWESNGQPENNYKTTPPVLDSDGSFFLVSKLTVDKSRWQQGNVFSCSVMHEALHNRFTQKSLSLSPG
light: SSELTQDPAVSVALGQTVRITCQGDSLSSYYAGWYQQKPGQAPVLVIYGKNNRPSGIPDRFSGSSSEDTASLTITGAQAEDEADYYCNSRDSSDNHLVFGGGTKLTVLGQPKAAPSVTLFPPSSEELQANKATLVCLISDFYPGAVTVAWKADSSPVKAGVETTTPSKQSNNKYAASSYLSLTPEQWKSHRSYSCQVTHEGSTVEKTVAPTECS
notes: 85801_04M04A x 19B2
B4: DGL495 (bispecific antibody, V domains shown)
V domain 1: EVQLVESGGGLVQAGGSLRLSCAASGLTFRNYAMAWFRQAPGKEREFVAGITWGGGLTHYVDSVKGRFTISRDNGKNTVYLQMNSLKSEDTAVYYCAGKTQGSTWYHLTPDGYDYWGQGTQVTVEP
V domain 2: QVQLVESGGGLVQPGGSLRLSCAASGFTFSNYAMSWVRQAPGKGLEWVSAINSDGTSTSYADSVKGQFTISRDNAKNTLYLQMNSLKPEDTAVYYCTKWEGDTDSDYKFKDYWGQGTQVTVEP
B5: DGL481 (bispecific antibody, V domains shown)
V domain 1: B1 V domain 1
V domain 2: B4 V domain 2
notes: 67B1 x 19B2
B6: DGL534 (bispecific antibody, V domains shown)
V domain 1: QVQLVESGGGLVQAGGSLRLSCLASGRTSNYFMGWFRQAPGKEREFVAAISRSGGGTWYADSVKGRFAISRDNAKNTVNLQMNSLKREDTAVYYCAADRRTGTSVYTVDEYDYWGQGTQVTVEP
V domain 2: B4 V domain 2
notes: 115B1 x 19B2
B7: DGL516 (bispecific antibody, V domains shown)
V domain 1: QVQLVESGGGLAQAGGSLRLSCAASGRTFSNDDMAWFRQAPGKEREFVAHIDRNAASTNYADSVKGRFTISRDNAKNTVYLQMTRLKPEDTAVYYCAADPDHFGTTWYQQYTYWGPGTQVTVEP
V domain 2: QVQLVESGGGLVQPGGSLRLSCAASGFTFEPYDMSWFRQAPGKGPEWVSAIDKGGGAGATYYADSVKGRFTISRDNAKKTLYLQMKSLKPEDTAVYYCAITAGPYSDSTPRVAYRGEGTQVTVEP
notes: 97B1 x 93B2
B8: DGL514 (bispecific antibody, V domains shown)
V domain 1: B7 V domain 1
V domain 2: QVQLVESGGGLVQPGGSLRLSCAASGFTFSNYAMSWIRQGPERGFEWVSRINSGGGTTSYADSVKGRFTISRDNAKNTLYLQMNSLKPEDTAVYYCAKHSHPDYSSNYYRPGQGTQVTVEP
notes: 97B1 x 67B2
B9: DGL605 (bispecific antibody, V domains shown)
V domain 1: B2 V domain 1
V domain 2: B7 V domain 2
notes: 238B1 x 93B2
B10: DGL515 (bispecific antibody, V domains shown)
V domain 1: B7 V domain 1
V domain 2: QVQLVESGGGLVQAGGSLRVSCAASGRIPSLNTMAWYRQAPGKQREFVAFITNGGTTNYVDSVEGRFSISRDNTKNAVDLQMNSLKPEDTGVYYCNVQISQYPYNYWGQGTQVTVEP
notes: 97B1 x 85B2
B11: DGL568 (bispecific antibody, V domains shown)
V domain 1: QVQLVESGGGLVQAGGSLRLSCAASRSISSFNEMAWYRQAPGEQRELVATIVSTVGFTNYADSVKGRFTISRDNAKNTVYLQMNSLKAEDTAVYYCNARRISTDYWGQGTQVTVEP
V domain 2: QVQLVESGGGLVRPGGSLRLSCAASGFTFSSNGMHWFRQAPGKGLEWVSSIGSGGTSIYYADSVKGRFTISRDNAKNTLYLQMNSLKSDDTAVYYCSKEVTGATRGQGTQVTVEP
notes: 233B1 x 13B2
B12: DGL570 (bispecific antibody, V domains shown)
V domain 1: B11 V domain 1
V domain 2: B1 V domain 2
notes: 233B1 x 64B2

Legend:
[1] = target: human IL-12 receptor (IL-12Rβ1 and IL-12Rβ2) on HEK-Blue IL-12 cells (human, UniProt P42701 24-662; Q99665 24-862); assay: cell-based or functional assay
[2] = target: human IL-12Rβ1, Acro (BLI analyte) (human, UniProt P42701 24-545); assay: BLI (Octet), antibody on AHC tip
[3] = target: T1, human IL-12Rβ2, Acro (BLI analyte) (human, UniProt Q99665 24-622, limits assumed); assay: BLI (Octet), antibody on AHC tip
T1 sequence (looked up): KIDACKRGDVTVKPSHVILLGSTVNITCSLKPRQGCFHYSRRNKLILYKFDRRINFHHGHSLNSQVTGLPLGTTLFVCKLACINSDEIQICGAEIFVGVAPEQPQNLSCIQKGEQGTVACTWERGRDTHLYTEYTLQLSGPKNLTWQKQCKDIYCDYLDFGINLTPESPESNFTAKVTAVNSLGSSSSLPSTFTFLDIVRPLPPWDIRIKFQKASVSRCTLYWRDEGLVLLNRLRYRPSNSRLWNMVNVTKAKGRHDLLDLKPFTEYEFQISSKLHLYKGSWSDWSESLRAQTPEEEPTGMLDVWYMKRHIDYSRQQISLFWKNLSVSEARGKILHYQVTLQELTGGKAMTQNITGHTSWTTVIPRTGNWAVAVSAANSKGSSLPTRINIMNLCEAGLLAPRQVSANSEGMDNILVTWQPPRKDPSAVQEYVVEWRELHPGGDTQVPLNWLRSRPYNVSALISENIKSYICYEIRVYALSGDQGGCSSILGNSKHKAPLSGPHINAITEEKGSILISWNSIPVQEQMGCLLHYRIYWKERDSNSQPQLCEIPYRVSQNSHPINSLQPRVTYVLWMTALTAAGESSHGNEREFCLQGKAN

Row | Binder | EC50 [1] | Max Absorbance [1] | Kd [2] [nM] | Kd [3] [nM]
1 | B1 | 2.9e-09 M (implied) | 0.68 | 6.83 | 7.4
2 | B2 | 8.8e-09 M (implied) | 0.92 | 2.68 | 6.03
3 | B3 | 6.6e-11 M (implied) | 0.79 | 1.63 | 0.682
4 | B4 | 6.4e-10 M (implied) | 0.96 | 10.7 | 0.77
5 | B5 | 3.3e-10 M (implied) | 0.93 | 7.17 | 0.772
6 | B6 | 4.5e-10 M (implied) | 0.69 | 59.5 | 0.706
7 | B7 | 6.5e-11 M (implied) | 1.05 | 27.3 | 3.41
8 | B8 | 3.5e-11 M (implied) | 0.85 | 9.86 | 5.48
9 | B9 | 4.6e-10 M (implied) | 0.74 | 2.25 | 1.87
10 | B10 | > 100 nM | 0.64 | 20.8 | < 0.001
11 | B11 | > 100 nM | 0.91 | 1.78 | 2.34
12 | B12 | > 100 nM | 1.44 | 1.38 | 7.66
